Assay results reported in patent publication US10604566B2, “Antagonists of IL-17C for the treatment and/or prevention of atopic dermatitis” (MORPHOSYS AG, priority 2015, dated 2020).

T1: murine IL-17C (Mus musculus, UniProt Q8K4C5)
T1 sequence (Q8K4C5 17-194): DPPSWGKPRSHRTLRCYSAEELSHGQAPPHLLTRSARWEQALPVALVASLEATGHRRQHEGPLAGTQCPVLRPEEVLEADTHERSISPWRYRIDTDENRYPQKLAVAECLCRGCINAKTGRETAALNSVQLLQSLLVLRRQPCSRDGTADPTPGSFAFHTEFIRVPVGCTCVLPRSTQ

T2: human IL-17C (Homo sapiens, UniProt Q9P0M4)
T2 sequence (Q9P0M4 19-197): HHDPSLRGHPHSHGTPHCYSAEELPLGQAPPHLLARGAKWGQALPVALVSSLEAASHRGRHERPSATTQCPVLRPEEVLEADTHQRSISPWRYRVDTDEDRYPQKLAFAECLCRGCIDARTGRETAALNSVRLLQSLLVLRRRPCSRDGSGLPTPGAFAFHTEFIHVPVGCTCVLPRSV


What was measured:
murine IL-17C = biological target: T1, murine IL-17C; experiment: Binding to murine IL-17C and inhibition of IL-17C binding to IL-17RE
Experimental: (§1) The following working examples were performed using the antibodies MOR12743 and MOR22420 (see Table 1). […] Therefore both antibodies are antagonists of IL-17C in the sense of the present disclosure. MOR12743 is already disclosed and characterized in WO 2013/057241 (U.S. Ser. No. 14/351,162), which is incorporated by reference in its entirety.

MC903-treated mice = experiment: MC903 mouse model of atopic dermatitis; type: in vivo, BALB/c mice; details: 3x10 mg/kg i.p.
Description: The pro-inflammatory function of IL-17C in atopic dermatitis was examined in a non-infectious cutaneous inflammation mouse model of atopic dermatitis where topical application of the low-calcemic vitamin D3 analogue MC903 (calcipotriol) induces atopic dermatitis like skin lesion characterized by a red and scaly skin, accompanied by an epidermal hyperplasia and dermal infiltration of various cell types as well as an increase of Th2 cytokine in skin and elevated serum IgE (Li et al., 2006; Li et al, 2009). The MC903 mouse model is a widely accepted and predictable model to mimic the Th2 driven symptoms of atopic dermatitis in vivo.
BALB/c mice (female, 8-week old) were obtained from Janvier Labs (France). Mice were kept on a 12 hours light/dark cycle (0700-1900). Temperature was maintained at 22° C., and food and water were provided ad libitum.
In order to induce an AD-like response, 2 nmol MC903 (Tocris, dissolved in ethanol) was topical applied in a volume of 20 μL on both ears of mice for 5 consecutive days. A non-disease control group received the same quantity of ethanol (EtOH).
The severity of skin inflammation (erythema and thickening) was observed daily. Ear thickness was measured with an electronic caliper (Mitutoyo). Inflammation was further assessed using an in vivo imaging technique. To that end, Prosense 680 probe (1.6 nmol, Perkin Elmer) was administered by intraperitoneal route 24 hours before imaging. Imaging was performed with the Bruker In-vivo Xtreme Imaging System. Images were captured by a deeply cooled 4MP CCD camera (f-stop 1.1, binning 2×2, 5 sec acquisition time, Ex 630 nm, Em 700 nm). For anatomical co-registration, a reflectance image was taken (f-stop 2.8, 0.175 sec acquisition time). All images were taken with a 190×190 field of view and images were analysed using Molecular Imaging Software version 7.1 (Bruker Biospin, Billerica, Mass., USA). For each group, the mean values and standard error of mean (sem) was calculated using for each mouse the mean value of left and right ear.
At sacrifice, samples form ear skin were collected and fixed in 4% formaldehyde before embedding in paraffin. 4 μm-thick slices were stained with hematoxylin and eosin (H&E stain) for histomorphometric evaluation of epidermal thickness by image analysis with Sisn'Com software (France). Five fields per ear (high power field ×20) covering the whole ear from top to bottom were measured, and the 5 values were averaged per ear and per mice (left/right ear). An additional set of tissue slices were prepared for IHC staining of IL-17C using the anti-IL-17C biotinylated MOR12743 antibody (and biotinylated MOR03207 isotype negative control antibody). Processing and staining was essentially done as described above.
Ear skin samples were also taken for analysis of cytokine expression using qPCR or ELISA. […] Ear skin sam pies for quantification at protein level were immediately snap frozen in liquid N2 and stored at −80° C. […] 5 μL of 10-fold diluted cDNA was used in real-time quantitative PCR reactions using SYBR Green technology with gene-specific primers from Qiagen. qPCR was performed on the ViiA™ 7 Real-Time PCR System (Applied Biosystems). Gene expression was normalized to the expression of 3 different house-keeping genes (cyclophilin, b-actin and GAPDH) and expressed as relative mRNA level of specific gene expression as obtained using the 2^−ΔCt method, with ΔCt=Ctgene−Geomean Ct-value (housekeeping genes). […]

human IL-17C = biological target: T2, human IL-17C; experiment: Binding to human IL-17C and inhibition of IL-17C binding to IL-17RE
Experimental: as §1

Row | specific binding to IL-17C (murine IL-17C) | specific binding to IL-17C (human IL-17C) | Molecule | inhibition of binding of IL-17C to its receptor IL-17RE (murine IL-17C) | ear inflammation as assessed by in vivo imaging (MC903-treated mice; day 5, Prosense 680 probe, FIG. 6) | ear redness (MC903-treated mice; day 8, vs MC903+MOR03207 isotype control) | ear swelling (ear thickness) (MC903-treated mice; day 8, vs MC903+MOR03207 isotype control, FIG. 5) | epidermal hyperplasia (epidermal thickness) (MC903-treated mice; histology H&E at sacrifice, FIG. 7) | TSLP expression in ears (MC903-treated mice; protein, ELISA, FIG. 8) | inhibition of binding of IL-17C to its receptor IL-17RE (human IL-17C)
1 | specifically bind |  | MOR12743: anti-IL-17C antibody, binds murine IL-17C; VH SEQ ID No.: 11, VL SEQ ID No.: 10; disclosed in WO 2013/057241 (antibody, V domains shown, mab Library) VH: QVQLVQSGAEVKKPGASVKVSCKASGYTFTSNFIHWVRQAPGQGLEWMGWISPYNGDTNYAQKFQGRVTMTRDTSISTAYMELSRLRSEDTAVYYCARESVYYGSDYGYNGMDIWGQGTLVTVSS VL: DIELTQPPSVSVSPGQTASITCSGDNLGEEYVSWYQQKPGQAPVLVIYDDTKRPSGIPERFSGSNSGNTATLTISGTQAEDEADYYCASWDLWSVEVFGGGTKLTVLGQ | inhibit binding of IL-17C to its receptor IL-17RE | significantly reduced | less red | significantly less swollen | partially reduced | significantly inhibited | 
2 |  | specifically bind | MOR22420: anti-IL-17C antibody, binds human IL-17C; VH SEQ ID No.: 21, VL SEQ ID No.: 20 (antibody, V domains shown, mab Library) VH: QVQLVQSGAEVKKPGSSVKVSCKASGGTFSSYAISWVRQAPGQGLEWMGTIDPFFGKTYYAQKFQGRVTITADESTSTAYMELSSLRSEDTAVYYCARDVSSISYYFHEYYSDRFDYWGQGTLVTVSS VL: DIALTQPASVSGSPGQSITISCTGTSSDVGGYEYVNWYQQHPGKAPKLMIYDDSYRPSGVSNRFSGSKSGNTASLTISGLQAEDEADYYCQSTDPHSTVVFGGGTKLTVLGQ |  |  |  |  |  |  | inhibit binding of IL-17C to its receptor IL-17RE
